In article PMC6066450:

Target: Neurabin (Nrb), endogenous in rat cortical neurons (rat (endogenous in primary cortical neurons)) (UniProt O35867)
Assay: co-IP

Chain of UniProt O35867 (O35867 whole entry): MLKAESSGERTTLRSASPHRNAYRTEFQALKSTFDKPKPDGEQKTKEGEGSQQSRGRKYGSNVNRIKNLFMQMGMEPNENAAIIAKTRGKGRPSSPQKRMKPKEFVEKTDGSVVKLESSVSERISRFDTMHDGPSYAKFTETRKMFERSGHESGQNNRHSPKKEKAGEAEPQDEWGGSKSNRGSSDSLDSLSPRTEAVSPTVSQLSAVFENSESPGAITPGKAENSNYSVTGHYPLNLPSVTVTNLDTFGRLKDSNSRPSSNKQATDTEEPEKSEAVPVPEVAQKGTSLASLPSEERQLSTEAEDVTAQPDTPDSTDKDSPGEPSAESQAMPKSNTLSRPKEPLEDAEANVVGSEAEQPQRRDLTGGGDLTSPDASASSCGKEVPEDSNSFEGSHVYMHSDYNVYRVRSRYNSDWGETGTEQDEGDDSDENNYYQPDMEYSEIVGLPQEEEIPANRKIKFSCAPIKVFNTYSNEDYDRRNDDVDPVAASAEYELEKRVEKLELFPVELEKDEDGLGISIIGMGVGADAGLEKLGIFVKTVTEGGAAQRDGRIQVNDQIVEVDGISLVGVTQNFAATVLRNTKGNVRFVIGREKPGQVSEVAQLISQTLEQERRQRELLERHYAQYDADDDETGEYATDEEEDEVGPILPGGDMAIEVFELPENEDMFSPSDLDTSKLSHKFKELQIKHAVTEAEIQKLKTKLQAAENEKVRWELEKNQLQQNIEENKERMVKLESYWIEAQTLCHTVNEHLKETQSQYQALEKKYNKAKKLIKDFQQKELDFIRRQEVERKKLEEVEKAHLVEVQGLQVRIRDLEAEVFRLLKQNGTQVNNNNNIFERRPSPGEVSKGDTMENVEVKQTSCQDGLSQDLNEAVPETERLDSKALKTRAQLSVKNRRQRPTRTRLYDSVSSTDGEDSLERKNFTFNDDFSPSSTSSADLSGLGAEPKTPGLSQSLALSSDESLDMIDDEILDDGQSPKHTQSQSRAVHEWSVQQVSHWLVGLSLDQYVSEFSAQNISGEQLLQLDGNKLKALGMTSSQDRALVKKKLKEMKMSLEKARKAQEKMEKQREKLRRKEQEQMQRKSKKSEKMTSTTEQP

Work on “Protein phosphatase-1 (PP1), endogenous in rat cortical neurons (from UniProt P62138 1-330) (enzyme)” yielded a PP1 co-IPed with Nrb after forskolin, percent of no forskolin control of 62.8%.
